Two variants from IntAct's records for PubMed 23932588 can be followed below.

First the molecules themselves.
B1: Tyrosine-protein phosphatase non-receptor type 5 (Mus musculus), P54830-1 (parent)
chain: MCCSERLLGLPQPVEMEAPDEAEGLPSKQKEMPPPPPPSPPSEPAQKLPPQGAGSHSLTVRSSLCLFAASQFLLACGVLWLSGHGHSWLQNTTDLISSSLTVLNHLGPVAWLGSGTWGIPSLLLVSLTVSLVIVTTLVWHLLKAPPEPPAPLPPEDRRQSVSRQPSFTYSEWMEEKVEDDFLDLDAVPETPVFDCVMDIKPETDPASLTVKSMGLQERRGSNVSLTLDMCTPGCNEEGFGYLVSPREESAHEYLLSASRVLRAEELHEKALDPFLLQAEFFEIPMNFVDPKEYDIPGLVRKNRYKTILPNPHSRVRLTSPDPEDPLSSYINANYIRGYSGEEKVYIATQGPIVSTVADFWRMVWQERTPIIVMITNIEEMNEKCTEYWPEEQVVHDGVEITVQKVIHTEDYRLRLISLRRGTEERSLKHYWFTSWPDQKTPDRAPPLLHLVREVEEAAQQEGPHCSPIIVHCSAGIGRTGCFIATSICCQQLRREGVVDILKTTCQLRQDRGGMIQTCEQYQFVHHAMSLYEKQLSLQSSE

This experiment covers variants of B1. To be noted: with MAPK14, Q16539-1.
Chain of MAPK14, Q16539-1 (Q16539 whole entry): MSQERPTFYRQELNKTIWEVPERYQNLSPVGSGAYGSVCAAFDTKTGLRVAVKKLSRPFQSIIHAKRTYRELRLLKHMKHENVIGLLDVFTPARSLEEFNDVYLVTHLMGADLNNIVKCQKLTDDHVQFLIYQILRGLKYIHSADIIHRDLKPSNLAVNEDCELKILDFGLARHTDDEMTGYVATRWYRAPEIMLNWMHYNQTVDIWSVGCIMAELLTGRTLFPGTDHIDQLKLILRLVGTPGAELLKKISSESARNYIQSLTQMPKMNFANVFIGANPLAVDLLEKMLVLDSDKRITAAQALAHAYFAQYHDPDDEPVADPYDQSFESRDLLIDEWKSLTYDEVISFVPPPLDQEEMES
On to F281A;I307A, for which the “effect of a mutation on the interaction” value is given as “decreasing interaction strength”.
With F274A;F281A the entry was “decreasing interaction strength”.
